PMC4749569, “Atomic structure of the 26S proteasome lid reveals the mechanism of deubiquitinase inhibition” (eLife, 2016)
Positions count from the first letter of the chain named. Names and notes keep the numbering of the source.

Experiments:
[1] = molecular target: Rpn11 (S. cerevisiae (yeast)) (UniProt P43588)
[2] = molecular target: Rpn11 (S. cerevisiae (yeast)) (UniProt P43588); remark: listed apart in the source
[3] = molecular target: Rpn11 (S. cerevisiae (yeast), UniProt P43588 1-306); assay: cell-based or functional assay
[4] = molecular target: Rpn11 (S. cerevisiae (yeast)) (UniProt P43588); remark: listed apart in the source
[5] = molecular target: T1, Rpn9 (S. cerevisiae (yeast)) (UniProt Q04062)
T1 sequence: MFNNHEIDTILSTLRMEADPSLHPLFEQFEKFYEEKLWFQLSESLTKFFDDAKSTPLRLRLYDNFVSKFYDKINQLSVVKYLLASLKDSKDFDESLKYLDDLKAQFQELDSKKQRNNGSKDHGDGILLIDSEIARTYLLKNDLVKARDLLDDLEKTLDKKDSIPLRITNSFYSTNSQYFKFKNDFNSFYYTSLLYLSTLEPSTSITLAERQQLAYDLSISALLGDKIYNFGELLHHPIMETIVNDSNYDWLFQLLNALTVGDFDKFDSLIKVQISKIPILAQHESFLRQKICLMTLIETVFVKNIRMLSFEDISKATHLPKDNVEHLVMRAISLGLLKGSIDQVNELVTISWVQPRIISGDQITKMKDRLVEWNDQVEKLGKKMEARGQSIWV

Chain of Rpn11 (S. cerevisiae (yeast)) (P43588 whole entry): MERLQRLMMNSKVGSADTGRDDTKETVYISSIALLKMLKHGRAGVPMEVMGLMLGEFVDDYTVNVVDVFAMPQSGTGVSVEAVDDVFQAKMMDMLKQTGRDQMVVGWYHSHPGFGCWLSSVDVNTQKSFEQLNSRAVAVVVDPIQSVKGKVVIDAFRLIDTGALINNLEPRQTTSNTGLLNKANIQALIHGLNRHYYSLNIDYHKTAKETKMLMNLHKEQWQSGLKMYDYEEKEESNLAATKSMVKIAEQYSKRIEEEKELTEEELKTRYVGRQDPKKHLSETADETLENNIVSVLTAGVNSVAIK
Chain of Rpn11 (P43588 whole entry): as above

B1: Rpn5 (Y273A) (natural protein)
chain: MSRDAPIKADKDYSQILKEEFPKIDSLAQNDCNSALDQLLVLEKKTRQASDLASSKEVLAKIVDLLASRNKWDDLNEQLTLLSKKHGQLKLSIQYMIQKVMEYLKSSKSLDLNTRISVIETIRVVTENKIFVEVERARVTKDLVEIKKEEGKIDEAADILCELQVETYGSMEMSEKIQFILEQMELSILKGDYSQATVLSRKILKKTFKNPKYESLKLEYYNLLVKISLHKREYLEVAQYLQEIYQTDAIKSDEAKWKPVLSHIVYFLVLSPAGNLQNDLIHKIQNDNNLKKLESQESLVKLFTTNELMRWPIVQKTYEPVLNEDDLAFGGEANKHHWEDLQKRVIEHNLRVISEYYSRITLLRLNELLDLTESQTETYISDLVNQGIIYAKVNRPAKIVNFEKPKNSSQLLNEWSHNVDELLEHIETIGHLITKEEIMHGLQAK
Ub-AMC cleavage rate of Rpn11 in the isolated lid with this variant, relative to the isolated Rpn11/Rpn8 dimer (% of the isolated Rpn11/Rpn8 dimer) [1]: 61

B2: Rpn5 K283A (natural protein)
chain: B1 chain with A273Y, K283A
Ub-AMC cleavage rate of Rpn11 in the isolated lid with this variant, relative to the free MPN heterodimer (% of the free MPN heterodimer) [2]: 41

B3: Rpn5 (H282A,K283A) (natural protein)
chain: B1 chain with A273Y, H282A, K283A
Ub-AMC cleavage rate of Rpn11 in the isolated lid with this variant, relative to the free MPN heterodimer (% of the free MPN heterodimer) [2]: 51

B4: Rpn5 (natural protein, S. cerevisiae (yeast))
chain: B1 chain with A273Y
Ub-AMC cleavage rate of Rpn11 in the isolated wild-type lid against the free Rpn11/Rpn8 dimer (500 nM enzyme, 2.5 μM Ubiquitin-AMC, 30°C, lid buffer) [3]: 5 fold lower

B5: Rpn5 (H282A) (natural protein)
chain: B1 chain with A273Y, H282A
Ub-AMC cleavage rate of Rpn11 in the isolated lid with this variant, relative to the free MPN heterodimer (% of the free MPN heterodimer) [2]: 31

B6: Rpn5 (N275A) (natural protein)
chain: B1 chain with A273Y, N275A
Ub-AMC cleavage rate of Rpn11 in the isolated lid with this variant, relative to the isolated MPN heterodimer (% of the isolated MPN heterodimer) [4]: 51

B7: Rpn8 (K86A,K88A) (natural protein)
chain: MSLQHEKVTIAPLVLLSALDHYERTQTKENKRCVGVILGDANSSTIRVTNSFALPFEEDEKNSDVWFLDHNYIENMNEMCKKINAAEALIGWYHSGPKLRASDLKINELFKKYTQNNPLLLIVDVKQQGVGLPTDAYVAIEQVKDDGTSTEKTFLHLPCTIEAEEAEEIGVEHLLRDVRDQAAGGLSIRLTNQLKSLKGLQSKLKDVVEYLDKVINKELPINHTILGKLQDVFNLLPNLGTPDDDEIDVENHDRINISNNLQKALTVKTNDELMVIYISNLVRSIIAFDDLIENKIQNKKIQEQRVKDKQSKVSDDSESESGDKEATAPLIQRKNKKN
Ub-AMC cleavage rate of Rpn11 in the isolated lid with this variant, relative to the isolated MPN heterodimer (% of the isolated MPN heterodimer) [5]: 60

B8: Rpn8 (K86A) (natural protein)
chain: B7 chain with A88K
Ub-AMC cleavage rate of Rpn11 in the isolated lid with this variant, relative to the free MPN heterodimer (% of the free MPN-heterodimer levels) [5]: 33

B9: Rpn8 (K88A) (natural protein)
chain: B7 chain with A86K
Ub-AMC cleavage rate of Rpn11 in the isolated lid with this variant, relative to the free MPN heterodimer (% of the free MPN-heterodimer levels) [5]: 45

B10: Rpn8 (Q115A) (natural protein)
chain: B7 chain with A86K, A88K, Q115A
Ub-AMC cleavage rate of Rpn11 in the isolated lid with this variant, relative to the isolated MPN heterodimer (% of isolated MPN levels) [5]: 33
